Data: US20250122278A1, “ANTI-INTERLEUKIN-9 ANTIBODY AND USE THEREOF” (GUANGDONG KEGUANDA PHARMACEUTICAL TECHNOLOGY CO., LTD., priority 2022, published 2025)
Substitutions are numbered along the chain they refer to.

B1: 22-F2-E9-C8 chimeric antibody (CA4) (antibody, V domains shown)
VH: EVQVVESGPGLVKPSQSLSLTCSVTGSSFTSGYYWNWIRQFPGNKLEWMGYIRYDGSNNYNPSLKNRISITRDTSKNQFFLKLNSVTSEDTATYYCASYGSSYDAMDYWGQGTSVTVSS
VL: DIQLTQPPASLSASVGETVTITCRASENIDSYLAWYQQKQGKSPQLLVYAATLLADGVPSRFSGSGSGTQYSLKINSLQSEDVARYYCQHYYSTPWTFGGGTKLELK
B2: 31-D6-B8-B8 chimeric antibody (CA2) (antibody, V domains shown)
VH: B1 VH with V4L, V5K, S27Y, F29S, N58S, Y60H, S88T, S101I, S102T
VL: B1 VL
B3: 38-D8-C7-G9 chimeric antibody (CA1) (antibody, V domains shown)
VH: EVQLKQSGAELMKPGASVKLSCKATGYTFTGYWIEWVKLRPGHGLEWIGEILPGSGSTNYNEEFKGKATFTADTSSNTAYMQLNSLTTEDSAIYYCARRTYYYGIPEDYWGQGTSVTVSS
VL: DIVMTQSQKFMSTSVGDRVSVTCKASQNVGTNVAWHQQKPGQSPKPLIYSASYRYSGVPDRFTGSGSGTDFTLTISNVQSEDLAEYFCQQYNSYPLTFGAGTKLELK
notes: also called CA1 antibody; human-mouse chimeric antibody CA1
B4: humanized antibody VH1-VL2 (hu.CA1) (antibody, V domains shown)
VH: EVQLKQSGAEVMKPGASVKVSCKATGYTFTGYWIEWVRLAPGHGLEWMGEILPGSGSTNYNQKFQGRVTFTADTSINTAYMELSRLRSDDTAIYYCARRTYYYGIPEDYWGQGTLVTVSS
VL: B3 VL with M11F, V15T, S20T, V21I, K24R, D60S, V78L, L83F, L106I
notes: IgG1 / kappa by the vectors pcDNA3.4-IgG1 and pcDNA3.4-IgKc; also called humanized VH1-VL2 antibody
B5: 29-B9-F5-B6 chimeric antibody (CA3) (antibody, V domains shown)
VH: EVQLQESGAELMKPGASVKISCKATGYTFSSYWIEWVKQRPGHGLEWIGQILPGSGSNNYNERFKGKATFTADTSSNTAYMQLSSLTSEDSAVYYCAREGNYGEAWFAYWGQGTLVTVSA
VL: DILLTQSPATLSVTPGDSVSLSCRASQSISNNLHWYQQKSHESPRLLIKYASQSMSGIPSRFSGSGSGTDFTLSINSVETEDFGMYFCQQSNSWPLTFGAGTKLELK

Assays:
[1] = molecular target: T1, IL-9-His recombinant protein (UniProt P15248 19-144); assay: ELISA on IL-9-His, 293F culture supernatant, antibody concentration 1 µg/mL
T1 construct: range 19-144; used as coating antigen in the ELISAs; also called IL9 (19-144)-His; not shown: His tag, C-terminal by the vector name

[2] = molecular target: T1, IL-9-His recombinant protein; assay: ELISA on IL-9-His, 293F culture supernatant, antibody concentration 2 µg/mL
Experimental: (§3) ELISA was conducted according to a standard protocol to determine the affinity of a purified antibody for the IL-9-His recombinant protein. In short, the IL-9-His recombinant protein was diluted with sterile PBS and added at 100 μL/well to a 96-well plate. The plate was incubated at 4° C. overnight and then blocked with a blocking buffer. 100 μL of a purified anti-IL-9 antibody serially diluted was added to the plate, and the plate was incubated for 1 h at room temperature. PBS was added to a control well. The plate was washed with PBST 3 times. Then 100 μL of horseradish peroxidase (HRP)-labeled anti-mouse IgG H&L (BIODRAGON, CAT #BF03001) was added, and the plate was incubated for 1 h at room temperature. The plate was washed with PBST 3 times. Then a chromogenic reaction was conducted with a 3,3′,5,5′-tetramethylbenzidine (TMB) chromogenic solution at room temperature. An OD value in each well was read by a microplate reader. Data was processed with PRISM GraphPad, and curves were plotted. The EC₅₀ value for each candidate antibody was calculated.

[3] = molecular target: T1, IL-9-His recombinant protein; assay: ELISA on IL-9-His, 293F culture supernatant, antibody concentration 1 µg/mL (second well)
Experimental: as §3

[4] = molecular target: T1, IL-9-His recombinant protein; assay: ELISA on IL-9-His, 293F culture supernatant, antibody concentration 2 µg/mL (second well)
Experimental: as §3

[5] = molecular target: T2, biotin-conjugated IL-9-Fc (Biotin-IL-9-Fc) (UniProt P15248 19-144, biotin-conjugated (sites not given)); assay: flow cytometry blocking assay (IL-9-IL-9R blocking determination): serially diluted chimeric antibody against the binding of Biotin-IL-9-Fc to 293-IL-9R cells (IL-9R), MFI; unit taken from the x axis, the table prints none
T2 construct: range 19-144; also called Fc-IL-9 recombinant protein; Fc-IL-9; not shown: Fc tag (Fc2 in the vector name pLVX-Fc2-IL9 (19-144)-Puro)

[6] = molecular target: T1, IL-9-His recombinant protein; assay: BLI (ForteBio), antibody on Protein A sensor, antigen 7.81-125 nM in solution
From the text: The affinity of a humanized antibody was detected by ForteBio (BLI). […] An affinity detection procedure was as follows: equilibration for 60 s, binding for 180 s, and dissociation for 180 s.

[7] = molecular target: T1, IL-9-His recombinant protein; assay: ELISA on coated IL-9-His, OD450; unit taken from the x axis, the table prints none
Experimental: as §3

[8] = molecular target: T2, biotin-conjugated IL-9-Fc …; assay: flow cytometry blocking assay (IL9-IL9R blocking determination): serially diluted antibody against the binding of Biotin-IL-9-Fc to 293-IL-9R cells (IL-9R), MFI; unit taken from the x axis, the table prints none
IL-9 = molecular target: T3, IL-9 (Homo sapiens, UniProt P15248); assay: ELISA binding of humanized antibodies to the target antigen; conditions: ELISA of culture supernatant of 293F cells, control chimeric antibody CA1
T3 construct: pcDNA3.4-IL9 (19-144)-His (P15248); His (C); made in house; host or cells: 293F cells (transient transfection)
Experimental: ELISA was conducted according to a standard protocol to determine the affinity of a purified antibody for the IL-9-His recombinant protein. In short, the IL-9-His recombinant protein was diluted with sterile PBS and added at 100 μL/well to a 96-well plate. The plate was incubated at 4° C. overnight and then blocked with a blocking buffer. 100 μL of a purified anti-IL-9 antibody serially diluted was added to the plate, and the plate was incubated for 1 h at room temperature. PBS was added to a control well. The plate was washed with PBST 3 times. Then 100 μL of horseradish peroxidase (HRP)-labeled anti-mouse IgG H&L (BIODRAGON, CAT #BF03001) was added, and the plate was incubated for 1 h at room temperature. The plate was washed with PBST 3 times. Then a chromogenic reaction was conducted with a 3,3′,5,5′-tetramethylbenzidine (TMB) chromogenic solution at room temperature. An OD value in each well was read by a microplate reader. Data was processed with PRISM GraphPad, and curves were plotted. The EC50 value for each candidate antibody was calculated.
Humanized antibody expression vectors carrying a designed heavy-chain or light-chain sequence were transiently transfected into 293F cells in pairs, and then a resulting culture supernatant was collected. According to a standard protocol (with reference to part 5.1 in Example 1), with a human-mouse chimeric antibody CA1 constructed with VH and VL of the original murine antibody as a control, the binding of a humanized antibody to a target antigen was detected by ELISA. The method for ELISA was the same as described in 5.1 of Example 1. […] In the follow-up experiments, the four combinations of VH1−VL2, VH1−VL4, VH2−VL4, and VH3−VL4 (hu.CA1 to hu.CA4) were taken as examples for antibody purification and function testing. […]

IL-9 antigen protein = molecular target: T4, IL-9 antigen protein (Homo sapiens, UniProt P15248); assay: ForteBio (BLI) affinity detection; assay type: binding; conditions: antibody immobilized on Protein A sensor, antigen 7.81-125 nM
T4 construct: pcDNA3.4-IL9 (19-144)-His (P15248) and pLVX-Fc2-IL9 (19-144)-Puro; made in house; host or cells: 293F cells (transient transfection)
Experimental: The affinity of a humanized antibody was detected by ForteBio (BLI). The chimeric (as a control) and humanized antibodies were immobilized with a Protein A sensor (SARTORIUS, Cat #18-5010) at an immobilization height of about 1 nm. An antigen protein sample was serially diluted with PBS to 125 nM, 62.5 nM, 31.25 nM, 15.625 nM, 7.81 nM, and 0 nM. An affinity detection procedure was as follows: equilibration for 60 s, binding for 180 s, and dissociation for 180 s.

[9] = test system: bleomycin mouse model of pulmonary fibrosis; assay: Bleomycin mouse pulmonary fibrosis model; assay type: in vivo
Experimental: (§1) 6 to 8-week-old male C57BL/6J mice (purchased from Guangdong Sijiajingda Biotechnology Co., Ltd., license No.: SCXK (Guangdong) 2020-0052) were grouped, modeled, and administered according to the protocols shown in Tables 6 and 7 below. The modeling with bleomycin (Nippon Kayaku, 15 mg powder, and dose: 1.5 mg/kg) and silica (SiO2, sigma, USA, S5631-500 g, and dose: 2.5 mg/mouse) was started on day 0 (DO). The administration was started on day 1 (D1), and normal saline was adopted as a solvent for an antibody. A positive drug pirfenidone (Beijing Kangdini Pharmaceutical Co., Ltd., 100 mg capsule) was adopted in a positive control group, and the humanized antibody hu.CA1 (VH1−VL2) of the present application was adopted in an anti-IL-9 antibody group.
(§2) A body weight of each mouse was measured every day. After the bleomycin model group was administered for 21 d and the silica model group was administered for 30 d, mice were sacrificed to collect lung tissues. The lung tissues each were stained to detect pathological changes in the lung tissues. Specifically, a degree of alveolar inflammation was detected through HE staining (an HE staining kit was purchased from Shanghai Beyotime Biotechnology, C0105M). A degree of pulmonary fibrosis was detected through Masson staining (a Masson staining kit was purchased from Nanjing Jiancheng Institute of Biological Engineering, D026-1-2). Scoring criteria for the HE staining and Masson staining were shown in Table 8 and Table 9 below, respectively (as shown in references: Matute-Bello G, Downey G, Moore B B, et al. An official American Thoracic Society workshop report: features and measurements of experimental acute lung injury in animals. Am J Respir Cell Mol Biol. 2011; 44 (5): 725-738. doi: 10.1165/rcmb.2009-0210ST and Lee Hyun Ju, Goo Jin Mo, Kim Na Ra et al. Semiquantitative measurement of murine bleomycin-induced lung fibrosis in in vivo and postmortem conditions using microcomputed tomography: correlation with pathologic scores—initial results. [J].Invest Radiol, 2008, 43: 453-60).

[10] = test system: silica mouse model of pulmonary fibrosis; assay: Silica mouse pulmonary fibrosis model; assay type: in vivo, C57BL/6J mice
Experimental: as §1, §2

T2 sequence (P15248 19-144 limits assumed, form in doubt): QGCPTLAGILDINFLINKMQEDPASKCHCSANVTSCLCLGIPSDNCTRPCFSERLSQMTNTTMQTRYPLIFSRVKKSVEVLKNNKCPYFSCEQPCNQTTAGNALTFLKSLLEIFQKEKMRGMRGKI
T1 sequence (P15248 19-144 limits assumed, form in doubt): as above
T4 sequence (P15248 19-144): as the sequence (P15248 19-144 limits assumed, form in doubt) above
T3 sequence (P15248 19-144): as the sequence (P15248 19-144 limits assumed, form in doubt) above

| Molecule | ELISA OD450 [1] [OD450] | ELISA OD450 [2] [OD450] | ELISA OD450 [3] [OD450] | ELISA OD450 [4] [OD450] | EC50 [5] [µg/mL] | Kd [6] [nM] | koff [6] [s⁻¹] | kon [6] [M⁻¹ s⁻¹] | EC50 [7] [µg/mL] | EC50 [8] [µg/mL] | also measured |
| --- | --- | --- | --- | --- | --- | --- | --- | --- | --- | --- | --- |
| B1 | 2.63 | 2.45 | 2.59 | 2.43 | 2.96 | – | – | – | – | – | – |
| B2 | 2.66 | 2.49 | 2.62 | 2.46 | 15.8 | – | – | – | – | – | – |
| B3 | 2.43 | 2.48 | 2.55 | 2.6 | 5.96 | 0.44 | 0.000934 | 2.13e+06 | 0.022 | 2.07 | – |
| B4 | – | – | – | – | – | 2.38 | 0.00253 | 1.07e+06 | 0.035 | 5.89 | binding to IL-9 (IL-9): bind to IL-9 with high affinity; Koff (IL-9 antigen protein): 0.002535 s⁻¹; Kon (IL-9 antigen protein): 1.066e+06 M⁻¹ s⁻¹; collagen fibers and fibrosis regions of lung tissues (Masson staining) ([9]; bleomycin model, 21 d): significantly reduced; inflammation score compared with pirfenidone group ([9]; bleomycin model, 21 d, HE staining): slightly lower than the pirfenidone group; inflammation score ([9]; bleomycin model, 21 d, HE staining, FIG. 9B): significantly reduce an inflammation score; fibrosis score ([9]; bleomycin model, 21 d, Masson staining, FIG. 10B): significantly reduce a fibrosis score; lung tissue structures (HE staining) ([9]; bleomycin model, 21 d, antibody 100 μg i.p. every other day, pirfenidone 300 mg/kg intragastric daily): improved; body weights over time ([9]; bleomycin model, compared with negative and positive control groups, FIG. 8A): changed in a same trend; safety ([9]; conclusion from body weights in bleomycin and silica models): excellent safety; collagen fibers and fibrosis regions of lung tissues (Masson staining) ([10]; 30 d): significantly reduced; inflammation score ([10]; 30 d, HE staining, FIG. 11B): significantly reduce an inflammation score; fibrosis score ([10]; 30 d, Masson staining, FIG. 12B): reduce a fibrosis score; lung tissue structures (HE staining) ([10]; 30 d, antibody 100 μg i.p. every other day, pirfenidone 300 mg/kg intragastric daily): improved; body weights over time ([10]; compared with negative and positive control groups, FIG. 8B): changed in a same trend |
| B5 | 2.71 | 2.56 | 2.62 | 2.45 | 8.47 | – | – | – | – | – | – |
